Measurements: patent US20160347808A1 (IMMATICS BIOTECHNOLOGIES, published 2016)

B1: peptide RLLENMTEVV (SEQ ID NO 148) (peptide)
peptide: RLLENMTEVV
B2: peptide ILYQTVTGL (SEQ ID NO 119) (peptide)
peptide: ILYQTVTGL
B3: peptide ALIKQLFEA (SEQ ID NO 1) (peptide)
peptide: ALIKQLFEA
notes: also called ZNF-002
B4: peptide VLYEGVDEV (SEQ ID NO 120) (peptide)
peptide: VLYEGVDEV
B5: peptide LLLEVVKQV (SEQ ID NO 145) (peptide)
peptide: LLLEVVKQV
B6: peptide SLFDVSHML (SEQ ID NO 115) (peptide)
peptide: SLFDVSHML
B7: peptide RLAELTVDEFLA (SEQ ID NO 127) (peptide)
peptide: RLAELTVDEFLA
B8: peptide KLGDFGLLVEL (SEQ ID NO 125) (peptide)
peptide: KLGDFGLLVEL
B9: peptide SLISEKILL (SEQ ID NO 106) (peptide)
peptide: SLISEKILL
B10: peptide SLAPNIISQL (SEQ ID NO 121) (peptide)
peptide: SLAPNIISQL
B11: peptide ALDGDQMEL (SEQ ID NO 109) (peptide)
peptide: ALDGDQMEL
B12: peptide ILLTIKDDTIYL (SEQ ID NO 104) (peptide)
peptide: ILLTIKDDTIYL
B13: peptide RVLPPSALQSV (SEQ ID NO 124) (peptide)
peptide: RVLPPSALQSV
B14: peptide VLVDDDGIKVV (SEQ ID NO 159) (peptide)
peptide: VLVDDDGIKVV
B15: peptide RMYNKIFAI (SEQ ID NO 10) (peptide)
peptide: RMYNKIFAI
B16: peptide TLAKYLMEL (SEQ ID NO 126) (peptide)
peptide: TLAKYLMEL
B17: peptide FLLAEDTKV (SEQ ID NO 13) (peptide)
peptide: FLLAEDTKV
B18: peptide KLLAVIHEL (SEQ ID NO 152) (peptide)
peptide: KLLAVIHEL
notes: also called RAD54B-002
B19: peptide KLLEFDQLQL (SEQ ID NO 160) (peptide)
peptide: KLLEFDQLQL
B20: peptide LLADLKTMV (SEQ ID NO 118) (peptide)
peptide: LLADLKTMV
B21: peptide RLLHEVQEL (SEQ ID NO 163) (peptide)
peptide: RLLHEVQEL
B22: peptide YALDLSTFL (SEQ ID NO 105) (peptide)
peptide: YALDLSTFL
B23: peptide ALVQGILERV (SEQ ID NO 12) (peptide)
peptide: ALVQGILERV
B24: peptide LLNEILEQV (SEQ ID NO 140) (peptide)
peptide: LLNEILEQV
B25: peptide LVYQFVHPI (SEQ ID NO 116) (peptide)
peptide: LVYQFVHPI
B26: peptide KLFDIFSQQV (SEQ ID NO 136) (peptide)
peptide: KLFDIFSQQV
B27: peptide ILYDLQQNL (SEQ ID NO 113) (peptide)
peptide: ILYDLQQNL
B28: peptide KLMDYIDEL (SEQ ID NO 162) (peptide)
peptide: KLMDYIDEL
B29: peptide QLTEIKPLL (SEQ ID NO 137) (peptide)
peptide: QLTEIKPLL
B30: peptide YLFEKTFNM (SEQ ID NO 11) (peptide)
peptide: YLFEKTFNM
B31: peptide FLKNELDNV (SEQ ID NO 161) (peptide)
peptide: FLKNELDNV
B32: peptide LQLDKEFQL (SEQ ID NO 15) (peptide)
peptide: LQLDKEFQL
B33: peptide SLIERDLKL (SEQ ID NO 157) (peptide)
peptide: SLIERDLKL
B34: peptide LLNDRIWLA (SEQ ID NO 144) (peptide)
peptide: LLNDRIWLA
B35: peptide TAVGHALVL (SEQ ID NO 114) (peptide)
peptide: TAVGHALVL
B36: peptide AVIEHLERL (SEQ ID NO 141) (peptide)
peptide: AVIEHLERL
B37: peptide KLPSETIFVGC (SEQ ID NO 154) (peptide)
peptide: KLPSETIFVGC
B38: peptide KLGQVLIYL (SEQ ID NO 112) (peptide)
peptide: KLGQVLIYL
B39: peptide ILFSEDSTKLFV (SEQ ID NO 153) (peptide)
peptide: ILFSEDSTKLFV
B40: peptide GVAGGSILKGV (SEQ ID NO 134) (peptide)
peptide: GVAGGSILKGV
B41: peptide TLQPVDNSTISL (SEQ ID NO 117) (peptide)
peptide: TLQPVDNSTISL
B42: peptide RLLGEEVVRV (SEQ ID NO 155) (peptide)
peptide: RLLGEEVVRV
B43: peptide KQFEGTVEI (SEQ ID NO 138) (peptide)
peptide: KQFEGTVEI
B44: peptide TLTELRAFL (SEQ ID NO 147) (peptide)
peptide: TLTELRAFL
B45: peptide VLIDVLKEL (SEQ ID NO 129) (peptide)
peptide: VLIDVLKEL
B46: peptide FLDKPEDVLL (SEQ ID NO 14) (peptide)
peptide: FLDKPEDVLL
B47: peptide RTFEKIEEV (SEQ ID NO 133) (peptide)
peptide: RTFEKIEEV
B48: peptide ALLGGGPYML (SEQ ID NO 107) (peptide)
peptide: ALLGGGPYML
B49: peptide VLLNEILEQV (SEQ ID NO 139) (peptide)
peptide: VLLNEILEQV
B50: peptide SAQGSDVSLTACKV (SEQ ID NO 151) (peptide)
peptide: SAQGSDVSLTACKV
B51: peptide SLVQRVETI (SEQ ID NO 142) (peptide)
peptide: SLVQRVETI
notes: also called ECT2-001
B52: peptide YQFDKVGILTL (SEQ ID NO 149) (peptide)
peptide: YQFDKVGILTL
B53: peptide GLGGSQLIDTHL (SEQ ID NO 130) (peptide)
peptide: GLGGSQLIDTHL
B54: peptide ALSDETWGL (SEQ ID NO 146) (peptide)
peptide: ALSDETWGL
B55: peptide KTLERSYLL (SEQ ID NO 123) (peptide)
peptide: KTLERSYLL
B56: peptide SLMMTIINL (SEQ ID NO 156) (peptide)
peptide: SLMMTIINL
B57: peptide LLGELPRLLLL (SEQ ID NO 110) (peptide)
peptide: LLGELPRLLLL
B58: peptide ALLNAILHSA (SEQ ID NO 132) (peptide)
peptide: ALLNAILHSA
B59: peptide KLQEEIPVL (SEQ ID NO 135) (peptide)
peptide: KLQEEIPVL
B60: peptide KLLDVVHPA (SEQ ID NO 131) (peptide)
peptide: KLLDVVHPA
B61: peptide SLAELVPGVGGI (SEQ ID NO 108) (peptide)
peptide: SLAELVPGVGGI
B62: peptide KLSDVWKEL (SEQ ID NO 143) (peptide)
peptide: KLSDVWKEL
B63: peptide RLADLEALKV (SEQ ID NO 150) (peptide)
peptide: RLADLEALKV
B64: peptide SLMGMVLKL (SEQ ID NO 122) (peptide)
peptide: SLMGMVLKL
B65: peptide MLDDRAYLV (SEQ ID NO 128) (peptide)
peptide: MLDDRAYLV
B66: peptide GLLDPSVFHV (SEQ ID NO 158) (peptide)
peptide: GLLDPSVFHV

The binders below were run against T1, HLA-A*02:01 (peptide-receptive MHC class I monomer from UV-ligand exchange) (human) (assay: UV-exchange ELISA (anti-b2m); exchange yield grade: + >=10%, ++ >=20%, +++ >=50%, ++++ >=75%).
T1 construct: Monomers were captured on streptavidin-coated plates
Description: Candidate peptides for T cell based therapies according to the present invention were further tested for their MHC binding capacity (affinity). The individual peptide-MHC complexes were produced by UV-ligand exchange, where a UV-sensitive peptide is cleaved upon UV-irradiation, and exchanged with the peptide of interest as analyzed. Only peptide candidates that can effectively bind and stabilize the peptide-receptive MHC molecules prevent dissociation of the MHC complexes. To determine the yield of the exchange reaction, an ELISA was performed based on the detection of the light chain (β2m) of stabilized MHC complexes. The assay was performed as generally described in Rodenko et al. (Rodenko et al., 2006).
96 well MAXISorp plates (NUNC) were coated over night with 2 ug/ml streptavidin in PBS at room temperature, washed 4× and blocked for 1 h at 37° C. in 2% BSA containing blocking buffer. Refolded HLA-A*02:01/MLA-001 monomers served as standards, covering the range of 15-500 ng/ml. Peptide-MHC monomers of the UV-exchange reaction were diluted 100 fold in blocking buffer. Samples were incubated for 1 h at 37° C., washed four times, incubated with 2 ug/ml HRP conjugated anti-β2m for 1 h at 37° C., washed again and detected with TMB solution that is stopped with […]. Absorption was measured at 450 nm. Candidate peptides that show a high exchange yield (preferably higher than 50%, most preferred higher than 75%) are generally preferred for a generation and production of antibodies or fragments thereof, and/or T cell receptors or fragments thereof, as they show sufficient avidity to the MHC molecules and prevent dissociation of the MHC complexes.
B1 showed a peptide exchange yield of 50 to 75%.
B2 was tested, and the peptide exchange yield was 20 to 50%.
With B3 the peptide exchange yield was 50 to 75%.
Work on B4 yielded a peptide exchange yield of 20 to 50%.
B5 showed a peptide exchange yield of 50 to 75%.
B6 gave a peptide exchange yield of 50 to 75%.
For B7, the peptide exchange yield was 50 to 75%.
With B8 the peptide exchange yield was ≥ 75%.
B9 showed a peptide exchange yield of 50 to 75%.
Work on B10 yielded a peptide exchange yield of 50 to 75%.
For B11, the peptide exchange yield was 20 to 50%.
For B12, the peptide exchange yield was 50 to 75%.
Binder B13 has a peptide exchange yield of 50 to 75%.
B14 showed a peptide exchange yield of 20 to 50%.
In the case of B15, the peptide exchange yield is reported as 50 to 75%.
Binder B16 has a peptide exchange yield of 50 to 75%.
B17 gave a peptide exchange yield of 50 to 75%.
Binder B18 has a peptide exchange yield of 20 to 50%.
B19 was tested, and the peptide exchange yield was 50 to 75%.
B20 gave a peptide exchange yield of 50 to 75%.
Binder B21 has a peptide exchange yield of 50 to 75%.
In the case of B22, the peptide exchange yield is reported as 50 to 75%.
For B23, the peptide exchange yield was 50 to 75%.
Work on B24 yielded a peptide exchange yield of 50 to 75%.
B25 showed a peptide exchange yield of 20 to 50%.
Binder B26 has a peptide exchange yield of 50 to 75%.
In the case of B27, the peptide exchange yield is reported as 20 to 50%.
B28 was tested, and the peptide exchange yield was 50 to 75%.
With B29 the peptide exchange yield was 50 to 75%.
B30 was tested, and the peptide exchange yield was 50 to 75%.
For B31, the peptide exchange yield was 50 to 75%.
B32 showed a peptide exchange yield of 50 to 75%.
B33 showed a peptide exchange yield of 50 to 75%.
With B34 the peptide exchange yield was 50 to 75%.
Binder B35 has a peptide exchange yield of 10 to 20%.
With B36 the peptide exchange yield was ≥ 75%.
B37 gave a peptide exchange yield of 50 to 75%.
With B38 the peptide exchange yield was 20 to 50%.
In the case of B39, the peptide exchange yield is reported as 50 to 75%.
B40 was tested, and the peptide exchange yield was ≥ 75%.
Work on B41 yielded a peptide exchange yield of 20 to 50%.
Binder B42 has a peptide exchange yield of 50 to 75%.
For B43, the peptide exchange yield was 50 to 75%.
In the case of B44, the peptide exchange yield is reported as ≥ 75%.
Work on B45 yielded a peptide exchange yield of 50 to 75%.
Binder B46 has a peptide exchange yield of 20 to 50%.
For B47, the peptide exchange yield was 20 to 50%.
In the case of B48, the peptide exchange yield is reported as 50 to 75%.
In the case of B49, the peptide exchange yield is reported as 50 to 75%.
B50 showed a peptide exchange yield of 50 to 75%.
B51 was tested, and the peptide exchange yield was 50 to 75%.
B52 gave a peptide exchange yield of 50 to 75%.
For B53, the peptide exchange yield was 20 to 50%.
For B54, the peptide exchange yield was 20 to 50%.
B55 showed a peptide exchange yield of 20 to 50%.
With B56 the peptide exchange yield was ≥ 75%.
B57 was tested, and the peptide exchange yield was 50 to 75%.
In the case of B58, the peptide exchange yield is reported as 50 to 75%.
B59 showed a peptide exchange yield of 20 to 50%.
With B60 the peptide exchange yield was 20 to 50%.
B61 was tested, and the peptide exchange yield was 50 to 75%.
B62 showed a peptide exchange yield of 50 to 75%.
With B63 the peptide exchange yield was 50 to 75%.
B64 showed a peptide exchange yield of 50 to 75%.
For B65, the peptide exchange yield was 20 to 50%.
Binder B66 has a peptide exchange yield of 50 to 75%.
